± gives the uncertainty stated by the source.
Test: self-splicing fitness, log relative to wild type (ln ratio); higher = more splicing; Tetrahymena group I intron in knt gene, E. coli kanamycin selection, DiMSum; sequences stand for … in CUCUCU…GGAGGGAAAAGUUAUCAGGCAUGCACCUGGUAGCUAGUCUUUAAACCAAUAGAUUGCAUCGGUUUAAAAGGCAAGACCGUCAAAUUGCGGGAAAGGGGUCAACAGCCGUUCAGUACCAAGUCUCAGGGGAAACUUUGAGAUGGCCUUGCAAAGGGUAUGGUAAUAAGCUGACGGACAUGGUCCUAACCACGCAGCCAAGUCCUAAGUCAACAGAUCUUCUGUUGAUAUGGAUGCAGUUCACAGACUAAAUGUCGGUCGGGGAAGAUGUAUUCUUCUCAUAAGAUAUAGUCGGACCUCUCCUUAAUGGGAGCUAGCGGAUGAAGUGAUGCAACACUGGAGCCGCUGGGAACUAAUUUGUAUGCGAAAGUAUAUUGAUUAGUUUUGGAGUACUCGUGGUCG
In short: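 The eight P1ex-region nucleotides of an intron in the knt kanamycin-resistance gene on pET-22b(+) were all randomised and the library put into E. coli BL21(DE3). Six replicate transformations were grown overnight at 37°C or 30°C on LB agar with or without 25 μg/mL kanamycin, together with 100 μg/mL carbenicillin, 50 μM IPTG and 0.2% rhamnose. Colonies were pooled and amplicon-sequenced on an Illumina HiSeq 2500. Fitness from DiMSum is the error-weighted combination of wild-type-normalised replicate fold changes, kanamycin over none.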

Sequence	self-splicing fitness (ln) (30 °C)	self-splicing fitness (ln) (37 °C)
GCUCAGCAAUAUUACGAGUU	-1.85 ± 0.079	-0.858 ± 0.09
CGUCAGCAAUAUUACGGCAU	-0.76 ± 0.074	-0.608 ± 0.081
AGGGAGCAAUAUUACGCUAA	–	-2.1 ± 0.49
CUCUAGCAAUAUUACGCGGU	-3.25 ± 0.26	-2.59 ± 0.29
AUUUAGCAAUAUUACGAUUU	-0.123 ± 0.12	0.23 ± 0.13
UGGCAGCAAUAUUACGGCUC	-0.609 ± 0.082	-0.683 ± 0.11
UGGAAGCAAUAUUACGAUUU	-2.48 ± 0.087	-1.7 ± 0.092
CGCGAGCAAUAUUACGUUCU	-3.71 ± 0.28	-2.76 ± 0.38
AGGAAGCAAUAUUACGAUGA	-0.649 ± 0.13	-0.773 ± 0.17
ACAAAGCAAUAUUACGGAUA	-2.14 ± 0.2	-1.68 ± 0.17
CUUCAGCAAUAUUACGUGAC	-4.76 ± 0.46	-3.05 ± 0.37
AAAGAGCAAUAUUACGCGAA	-2.83 ± 0.2	-1.46 ± 0.24
CUCAAGCAAUAUUACGAUGG	-1.28 ± 0.061	0.0609 ± 0.08
AGCAAGCAAUAUUACGACAC	-1.21 ± 0.085	-0.583 ± 0.11
CACGAGCAAUAUUACGGCGA	-3.28 ± 0.19	-2.69 ± 0.26
GGCUAGCAAUAUUACGUGGU	-3.18 ± 0.23	-2.13 ± 0.24
CACCAGCAAUAUUACGAUGU	-3.07 ± 0.12	-0.91 ± 0.085
CAUGAGCAAUAUUACGAGCU	-2.78 ± 0.23	–
AAGGAGCAAUAUUACGCUAA	-2.97 ± 0.23	-1.51 ± 0.2
CGACAGCAAUAUUACGAAUG	-1.1 ± 0.079	-0.112 ± 0.1
GAAGAGCAAUAUUACGAGAU	-3.35 ± 0.23	-2.08 ± 0.19
UCAAAGCAAUAUUACGUUGA	-3.43 ± 0.14	-2.66 ± 0.18
UACAAGCAAUAUUACGGGAU	-3.65 ± 0.17	-1.39 ± 0.11
CCAAAGCAAUAUUACGAUUG	-1.36 ± 0.06	-0.695 ± 0.081
AUACAGCAAUAUUACGAUUU	-0.0463 ± 0.053	0.498 ± 0.073
AAUUAGCAAUAUUACGGUGG	-2.7 ± 0.18	-1.96 ± 0.22

Sequence	self-splicing fitness (ln) (30 °C)	self-splicing fitness (ln) (37 °C)
CAUCAGCAAUAUUACGGGAA	-2.53 ± 0.21	-1.68 ± 0.17
CCUCAGCAAUAUUACGACUU	-3.69 ± 0.42	-2.43 ± 0.26
GACUAGCAAUAUUACGAGUG	-0.94 ± 0.078	-0.316 ± 0.098
GUCCAGCAAUAUUACGGCGG	-4.63 ± 0.42	-1.4 ± 0.29
UCAGAGCAAUAUUACGUCGU	-2.89 ± 0.24	-0.54 ± 0.24
GCCAAGCAAUAUUACGUAGU	-0.579 ± 0.051	-0.395 ± 0.06
GCAUAGCAAUAUUACGACGG	–	-1.01 ± 0.41
CACCAGCAAUAUUACGGGAG	-2.61 ± 0.067	-1.26 ± 0.076
AACGAGCAAUAUUACGGCCA	-3.21 ± 0.18	-1.37 ± 0.13
GUGCAGCAAUAUUACGUGCA	-3.19 ± 0.15	-2.41 ± 0.17
GGGCAGCAAUAUUACGAACA	-0.951 ± 0.17	-0.607 ± 0.18
CGCUAGCAAUAUUACGGCAA	-0.889 ± 0.099	-0.0297 ± 0.11
UCGUAGCAAUAUUACGCGAA	-2.68 ± 0.23	-0.932 ± 0.19
CUUCAGCAAUAUUACGCUAU	-3.33 ± 0.37	-1.99 ± 0.25
UUCCAGCAAUAUUACGACGA	-0.529 ± 0.12	0.216 ± 0.15
CCGAAGCAAUAUUACGGUGG	-4.27 ± 0.24	-1.35 ± 0.11
GUGUAGCAAUAUUACGGGCU	-2.88 ± 0.46	-0.129 ± 0.14
GGUGAGCAAUAUUACGAGGA	-1.95 ± 0.39	-2.02 ± 0.33
UUCUAGCAAUAUUACGUGGA	-1.73 ± 0.31	-1.15 ± 0.18
UAGAAGCAAUAUUACGUAUU	-2.3 ± 0.087	-2.22 ± 0.12
CGCAAGCAAUAUUACGCAUA	-3.81 ± 0.3	-0.539 ± 0.15
GUCUAGCAAUAUUACGUUCG	-0.604 ± 0.18	-0.859 ± 0.17
UGGCAGCAAUAUUACGAUGA	-0.639 ± 0.12	-0.971 ± 0.14
AACUAGCAAUAUUACGCCGG	-1.63 ± 0.14	-1.19 ± 0.17
UCAAAGCAAUAUUACGGGGC	-2.18 ± 0.16	-2.14 ± 0.19
CUUGAGCAAUAUUACGUUAA	-2.47 ± 0.16	-2.6 ± 0.22

Sequence	self-splicing fitness (ln) (30 °C)	self-splicing fitness (ln) (37 °C)
AACGAGCAAUAUUACGGGCC	-4.29 ± 0.39	-3.18 ± 0.47
UGGUAGCAAUAUUACGGCUA	-1.37 ± 0.2	-0.75 ± 0.19
UAAUAGCAAUAUUACGGCGC	-3.51 ± 0.35	-2.42 ± 0.38
GGACAGCAAUAUUACGAGUU	-3.64 ± 0.19	-1.24 ± 0.11
AUUCAGCAAUAUUACGAAAC	-1.17 ± 0.061	-0.231 ± 0.1
CGGGAGCAAUAUUACGAGUC	–	-1.07 ± 0.26
CGAAAGCAAUAUUACGUGUA	-3 ± 0.13	-2.35 ± 0.13
UACUAGCAAUAUUACGCCGU	-2.24 ± 0.25	-2.67 ± 0.48
GAGGAGCAAUAUUACGGUCA	-2.76 ± 0.21	-2.19 ± 0.21
UCUUAGCAAUAUUACGUUUU	–	-1.8 ± 0.23
ACUUAGCAAUAUUACGGCAA	-0.92 ± 0.16	-1.31 ± 0.23
UAAGAGCAAUAUUACGCGGA	-2.95 ± 0.28	-2.35 ± 0.33
GAUAAGCAAUAUUACGUAUU	-4.03 ± 0.37	-1.78 ± 0.21
ACGCAGCAAUAUUACGACGG	-0.871 ± 0.051	-0.191 ± 0.073
UGCCAGCAAUAUUACGUAGU	-3.91 ± 0.21	-1.87 ± 0.13
AUAUAGCAAUAUUACGCCGC	-2.58 ± 0.49	–
ACGCAGCAAUAUUACGGCUC	-0.489 ± 0.055	-0.0273 ± 0.082
GAGUAGCAAUAUUACGUGUU	-3.05 ± 0.12	-1.12 ± 0.1
AGUAAGCAAUAUUACGGCGA	-0.491 ± 0.12	0.468 ± 0.17
UGCCAGCAAUAUUACGUAAA	-1.24 ± 0.093	-0.956 ± 0.12
GUGUAGCAAUAUUACGUAGG	-2.66 ± 0.18	-1.5 ± 0.18
CCCAAGCAAUAUUACGGCCA	-3.58 ± 0.31	-1.58 ± 0.16
CGCCAGCAAUAUUACGCAUU	-3.11 ± 0.25	-2.01 ± 0.18
AGCUAGCAAUAUUACGGGUG	-1.04 ± 0.068	-0.416 ± 0.087
AAGUAGCAAUAUUACGCACU	-0.686 ± 0.095	-0.854 ± 0.14
CUUCAGCAAUAUUACGCGUU	-2.33 ± 0.12	-2.7 ± 0.21

— the supplement of paper PMC7877785
